Measured values published in article PMC12095920.
One block for each molecule: values may come before it.

Assays:
[1] = target: tau^4R construct (four microtubule-binding repeat domains of human tau) (human) (UniProt P10636)
[2] = target: tau^4R construct (four microtubule-binding repeat domains of human tau) (human), P10636
tau^4R construct (four microtubule-binding repeat domains of human tau) (human), P10636, sequence (P10636 561-689): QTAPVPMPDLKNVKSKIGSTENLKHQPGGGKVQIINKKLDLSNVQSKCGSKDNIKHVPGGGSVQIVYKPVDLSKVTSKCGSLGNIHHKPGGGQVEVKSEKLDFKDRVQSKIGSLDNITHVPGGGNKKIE

- ThT fluorescence after 23 h in the presence of apiCCT3, relative to tau^4R alone (not shown) [1]: 2.5%
Molecule: apical domain of human CCT3 (from UniProt P49368 223-383) (domain or fragment)

- ThT fluorescence after 23 h in the presence of apiCCT7, relative to tau^4R alone [2]: 30%
B1: apical domain of human CCT7, Q99832 207-376 (domain or fragment)
chain: DSQLVAGVAFKKTFSYAGFEMQPKKYHNPKIALLNVELELKAEKDNAEIRVHTVEDYQAIVDAEWNILYDKLEKIHHSGAKVVLSKLPIGDVATQYFADRDMFCAGRVPEEDLKRTMMACGGSIQTSVNALSADVLGRCQVFEETQIGGERYNFFTGCPKAKTCTFILRG
